Broadly, the kon is the rate constant with which the complex forms. Read a high kon as faster complex formation. The koff is the first-order rate constant of dissociation.

B1: D10 A06-hFc (S239C + S442C), [G4S]1 linkers (Fc fusion)
chain 1: QVQLVESGGGLVQPGGSLRLSCAASGSIFSVNTMGWYRQAPGKQRDLVAVATSGGTIHYADSVKGRFTISRDNAKNTVYLQMNSLKPEDTAVYYCNLVVPYGMIAGDHDYWGQGTKVTVSSGGGGSEPKSSDKTHTCPPCPAPELLGGPCVFLFPPKPKDTLMISRTPEVTCVVVDVSHEDPEVKFNWYVDGVEVHNAKTKPREEQYNSTYRVVSVLTVLHQDWLNGKEYKCKVSNKALPAPIEKTISKAKGQPREPQVYTLPPSRDELTKNQVSLYCLVKGFYPSDIAVEWESNGQPENNYKTTPPVLDSDGSFFLYSKLTVDKSRWQQGNVFSCSVMHEALHNHYTQKSLCLSPGK
chain 2: QVHLVESGGGLVQAGGSLRLSCAASGRTFLSMGWFRQAPGKEREFVAAISWTGGSTGYADSVKGRFTISRESDKETMYLQMNSLKPEDTAVYYCAARGDVYYGGDDATRYKYWGQGTQVTVSSGGGGSEPKSSDKTHTCPPCPAPELLGGPCVFLFPPKPKDTLMISRTPEVTCVVVDVSHEDPEVKFNWYVDGVEVHNAKTKPREEQYNSTYRVVSVLTVLHQDWLNGKEYKCKVSNKALPAPIEKTISKAKGQPREPQVYTLPPSRDELTKNQVSLTCLVKGFYPSDIAVEWESNGQPENNYKTTPPVLDSDGSFFLTSKLTVDKSRWQQGNVFSCSVMHEALHNHYTQKSLCLSPGK
notes: Biparatopic heterodimer; also called #666
B2: D10 E10-hFc (S239C + S442C), [G4S]1 linkers (Fc fusion)
chain 1: QVQLVESGGGLVQPGGSLRLSCAASGSIFSVNTMGWYRQAPGKQRDLVAVATSGGTIHYADSVKGRFTISRDNAKNTVYLQMNSLKPEDTAVYYCNLVVPYGMIAGDHDYWGQGTKVTVSSGGGGSEPKSSDKTHTCPPCPAPELLGGPCVFLFPPKPKDTLMISRTPEVTCVVVDVSHEDPEVKFNWYVDGVEVHNAKTKPREEQYNSTYRVVSVLTVLHQDWLNGKEYKCKVSNKALPAPIEKTISKAKGQPREPQVYTLPPSRDELTKNQVSLYCLVKGFYPSDIAVEWESNGQPENNYKTTPPVLDSDGSFFLYSKLTVDKSRWQQGNVFSCSVMHEALHNHYTQKSLCLSPGK
chain 2: QVQLVESGGGLVQAGGSLRLSCAVSGRALSDYNIGWFRQAPGKEREFVARKTWDGSSTRYDDSVKGRFTVSIEDAKNTAYLQMSSLKTEDTAVYYCAAGRYSRARGWEYDYWGQGTQVTVSSGGGGSEPKSSDKTHTCPPCPAPELLGGPCVFLFPPKPKDTLMISRTPEVTCVVVDVSHEDPEVKFNWYVDGVEVHNAKTKPREEQYNSTYRVVSVLTVLHQDWLNGKEYKCKVSNKALPAPIEKTISKAKGQPREPQVYTLPPSRDELTKNQVSLTCLVKGFYPSDIAVEWESNGQPENNYKTTPPVLDSDGSFFLTSKLTVDKSRWQQGNVFSCSVMHEALHNHYTQKSLCLSPGK
notes: Biparatopic heterodimer; also called #668
B3: D10 E06-hFc (S239C + S442C), [G4S]1 linkers (Fc fusion)
chain 1: QVQLVESGGGLVQPGGSLRLSCAASGSIFSVNTMGWYRQAPGKQRDLVAVATSGGTIHYADSVKGRFTISRDNAKNTVYLQMNSLKPEDTAVYYCNLVVPYGMIAGDHDYWGQGTKVTVSSGGGGSEPKSSDKTHTCPPCPAPELLGGPCVFLFPPKPKDTLMISRTPEVTCVVVDVSHEDPEVKFNWYVDGVEVHNAKTKPREEQYNSTYRVVSVLTVLHQDWLNGKEYKCKVSNKALPAPIEKTISKAKGQPREPQVYTLPPSRDELTKNQVSLYCLVKGFYPSDIAVEWESNGQPENNYKTTPPVLDSDGSFFLYSKLTVDKSRWQQGNVFSCSVMHEALHNHYTQKSLCLSPGK
chain 2: QVHLVESGGGLVQAGGSLRLSCAASRRSFSEYAMGWFRQAPGKEREFVAAIGWSGVIEYADSVKGRFTISRDNAKDTVYLQMNSLKPEDTAVYYCAAGLGIRVVSQTPAYWGQGTQVTVSSGGGGSEPKSSDKTHTCPPCPAPELLGGPCVFLFPPKPKDTLMISRTPEVTCVVVDVSHEDPEVKFNWYVDGVEVHNAKTKPREEQYNSTYRVVSVLTVLHQDWLNGKEYKCKVSNKALPAPIEKTISKAKGQPREPQVYTLPPSRDELTKNQVSLTCLVKGFYPSDIAVEWESNGQPENNYKTTPPVLDSDGSFFLTSKLTVDKSRWQQGNVFSCSVMHEALHNHYTQKSLCLSPGK
notes: Biparatopic heterodimer
B4: A06 E06-hFc (S239C + S442C), [G4S]1 linkers (Fc fusion)
chain 1: QVHLVESGGGLVQAGGSLRLSCAASGRTFLSMGWFRQAPGKEREFVAAISWTGGSTGYADSVKGRFTISRESDKETMYLQMNSLKPEDTAVYYCAARGDVYYGGDDATRYKYWGQGTQVTVSSGGGGSEPKSSDKTHTCPPCPAPELLGGPCVFLFPPKPKDTLMISRTPEVTCVVVDVSHEDPEVKFNWYVDGVEVHNAKTKPREEQYNSTYRVVSVLTVLHQDWLNGKEYKCKVSNKALPAPIEKTISKAKGQPREPQVYTLPPSRDELTKNQVSLYCLVKGFYPSDIAVEWESNGQPENNYKTTPPVLDSDGSFFLYSKLTVDKSRWQQGNVFSCSVMHEALHNHYTQKSLCLSPGK
chain 2: QVHLVESGGGLVQAGGSLRLSCAASRRSFSEYAMGWFRQAPGKEREFVAAIGWSGVIEYADSVKGRFTISRDNAKDTVYLQMNSLKPEDTAVYYCAAGLGIRVVSQTPAYWGQGTQVTVSSGGGGSEPKSSDKTHTCPPCPAPELLGGPCVFLFPPKPKDTLMISRTPEVTCVVVDVSHEDPEVKFNWYVDGVEVHNAKTKPREEQYNSTYRVVSVLTVLHQDWLNGKEYKCKVSNKALPAPIEKTISKAKGQPREPQVYTLPPSRDELTKNQVSLTCLVKGFYPSDIAVEWESNGQPENNYKTTPPVLDSDGSFFLTSKLTVDKSRWQQGNVFSCSVMHEALHNHYTQKSLCLSPGK
notes: Biparatopic heterodimer; also called #671
B5: A06 E10-hFc (S239C + S442C), [G4S]1 linkers (Fc fusion)
chain 1: QVHLVESGGGLVQAGGSLRLSCAASGRTFLSMGWFRQAPGKEREFVAAISWTGGSTGYADSVKGRFTISRESDKETMYLQMNSLKPEDTAVYYCAARGDVYYGGDDATRYKYWGQGTQVTVSSGGGGSEPKSSDKTHTCPPCPAPELLGGPCVFLFPPKPKDTLMISRTPEVTCVVVDVSHEDPEVKFNWYVDGVEVHNAKTKPREEQYNSTYRVVSVLTVLHQDWLNGKEYKCKVSNKALPAPIEKTISKAKGQPREPQVYTLPPSRDELTKNQVSLYCLVKGFYPSDIAVEWESNGQPENNYKTTPPVLDSDGSFFLYSKLTVDKSRWQQGNVFSCSVMHEALHNHYTQKSLCLSPGK
chain 2: QVQLVESGGGLVQAGGSLRLSCAVSGRALSDYNIGWFRQAPGKEREFVARKTWDGSSTRYDDSVKGRFTVSIEDAKNTAYLQMSSLKTEDTAVYYCAAGRYSRARGWEYDYWGQGTQVTVSSGGGGSEPKSSDKTHTCPPCPAPELLGGPCVFLFPPKPKDTLMISRTPEVTCVVVDVSHEDPEVKFNWYVDGVEVHNAKTKPREEQYNSTYRVVSVLTVLHQDWLNGKEYKCKVSNKALPAPIEKTISKAKGQPREPQVYTLPPSRDELTKNQVSLTCLVKGFYPSDIAVEWESNGQPENNYKTTPPVLDSDGSFFLTSKLTVDKSRWQQGNVFSCSVMHEALHNHYTQKSLCLSPGK
notes: Biparatopic heterodimer
B6: D10 F05-hFc (S239C + S442C), [G4S]1 linkers (Fc fusion)
chain 1: QVQLVESGGGLVQPGGSLRLSCAASGSIFSVNTMGWYRQAPGKQRDLVAVATSGGTIHYADSVKGRFTISRDNAKNTVYLQMNSLKPEDTAVYYCNLVVPYGMIAGDHDYWGQGTKVTVSSGGGGSEPKSSDKTHTCPPCPAPELLGGPCVFLFPPKPKDTLMISRTPEVTCVVVDVSHEDPEVKFNWYVDGVEVHNAKTKPREEQYNSTYRVVSVLTVLHQDWLNGKEYKCKVSNKALPAPIEKTISKAKGQPREPQVYTLPPSRDELTKNQVSLYCLVKGFYPSDIAVEWESNGQPENNYKTTPPVLDSDGSFFLYSKLTVDKSRWQQGNVFSCSVMHEALHNHYTQKSLCLSPGK
chain 2: QVQLVESGGGLVQAGGSLRLSCAASGRAFGDYNIGWFRQAPGKEREFVARRTWDGSSTRYDDSVKGRFTVSIDNAKNTAYLQMNSLKTEDTAVYYCAAGRYSRVRGWEYDYWGQGTQVTVSSGGGGSEPKSSDKTHTCPPCPAPELLGGPCVFLFPPKPKDTLMISRTPEVTCVVVDVSHEDPEVKFNWYVDGVEVHNAKTKPREEQYNSTYRVVSVLTVLHQDWLNGKEYKCKVSNKALPAPIEKTISKAKGQPREPQVYTLPPSRDELTKNQVSLTCLVKGFYPSDIAVEWESNGQPENNYKTTPPVLDSDGSFFLTSKLTVDKSRWQQGNVFSCSVMHEALHNHYTQKSLCLSPGK
notes: Biparatopic heterodimer; also called #669
B7: A06 F05-hFc (S239C + S442C), [G4S]1 linkers (Fc fusion)
chain 1: QVHLVESGGGLVQAGGSLRLSCAASGRTFLSMGWFRQAPGKEREFVAAISWTGGSTGYADSVKGRFTISRESDKETMYLQMNSLKPEDTAVYYCAARGDVYYGGDDATRYKYWGQGTQVTVSSGGGGSEPKSSDKTHTCPPCPAPELLGGPCVFLFPPKPKDTLMISRTPEVTCVVVDVSHEDPEVKFNWYVDGVEVHNAKTKPREEQYNSTYRVVSVLTVLHQDWLNGKEYKCKVSNKALPAPIEKTISKAKGQPREPQVYTLPPSRDELTKNQVSLYCLVKGFYPSDIAVEWESNGQPENNYKTTPPVLDSDGSFFLYSKLTVDKSRWQQGNVFSCSVMHEALHNHYTQKSLCLSPGK
chain 2: QVQLVESGGGLVQAGGSLRLSCAASGRAFGDYNIGWFRQAPGKEREFVARRTWDGSSTRYDDSVKGRFTVSIDNAKNTAYLQMNSLKTEDTAVYYCAAGRYSRVRGWEYDYWGQGTQVTVSSGGGGSEPKSSDKTHTCPPCPAPELLGGPCVFLFPPKPKDTLMISRTPEVTCVVVDVSHEDPEVKFNWYVDGVEVHNAKTKPREEQYNSTYRVVSVLTVLHQDWLNGKEYKCKVSNKALPAPIEKTISKAKGQPREPQVYTLPPSRDELTKNQVSLTCLVKGFYPSDIAVEWESNGQPENNYKTTPPVLDSDGSFFLTSKLTVDKSRWQQGNVFSCSVMHEALHNHYTQKSLCLSPGK

In the experiment the target is T1, Human ALPP (leucine zipper) (human).
T1 construct: Soluble human ALPP fused to a disulphide stabilised leucine zipper and a His tag; The whole entry is the construct; also called hALPP; PLAP
T1 chain: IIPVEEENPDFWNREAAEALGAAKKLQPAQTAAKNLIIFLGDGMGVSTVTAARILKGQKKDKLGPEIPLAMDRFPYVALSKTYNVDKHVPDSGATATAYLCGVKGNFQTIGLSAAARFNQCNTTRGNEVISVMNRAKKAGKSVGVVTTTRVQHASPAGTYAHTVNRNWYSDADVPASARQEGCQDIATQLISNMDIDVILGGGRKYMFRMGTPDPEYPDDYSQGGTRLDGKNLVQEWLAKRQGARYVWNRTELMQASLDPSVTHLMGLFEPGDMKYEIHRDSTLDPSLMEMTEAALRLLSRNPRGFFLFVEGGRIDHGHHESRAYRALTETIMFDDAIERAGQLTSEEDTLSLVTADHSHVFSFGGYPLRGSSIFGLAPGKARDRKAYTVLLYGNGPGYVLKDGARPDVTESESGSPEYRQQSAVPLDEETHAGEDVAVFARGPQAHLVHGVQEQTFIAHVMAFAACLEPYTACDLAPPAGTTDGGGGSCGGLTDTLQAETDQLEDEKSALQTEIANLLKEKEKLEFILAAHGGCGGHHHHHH
Put plainly: BLI, KD app (antigen immobilised on AR2G sensor). The procedure:
Binding kinetics were determined using the Biolayer Interferometry (BLI) Octet K2 or R4 system (Sartorius). […] For KD apparent measurements, the ALPP proteins were immobilised in sodium acetate pH5 buffer to AR2G sensors using amine coupling. To measure 1:1 interactions, AHC biosensors were used to immobilise Fc-fused proteins. All assays were conducted in HBS-EP with a plate temperature of 25° C. Ka (M⁻¹s⁻¹), Kd (s⁻¹) and KD (nM) values were determined using Octet Data Analysis High Throughput software (Sartorius) for Biolayer Interferometry.
(In BLI a coated tip is dipped into the sample, and binding shifts an interference pattern.)
Turning to B1, the Kd is less than 0.01 nM and the kon turned out to be 332000 M⁻¹ s⁻¹.

B2 registered a Kd of less than 0.01 nM and an association rate constant (kon) of 374000 M⁻¹ s⁻¹.

As for B3, the Kd was 0.048 nM and the association rate constant (kon) turned out to be 271000 M⁻¹ s⁻¹.

Regarding B4, the Kd was found to be 0.0202 nM and the on-rate (kon) worked out at 602000 M⁻¹ s⁻¹.

B5 came in with a kon of 516000 M⁻¹ s⁻¹.

Turning to B6, the Kd was less than 0.01 nM, the koff is less than 1e-07 s⁻¹ and the kon turned out to be 430000 M⁻¹ s⁻¹.

In turn, B7 showed an on-rate constant (kon) of 422000 M⁻¹ s⁻¹.

These data come from patent US20260216242A1 (ALMAC DISCOVERY, published 2026).
